Assay results from US20110105397A1, “METHOD FOR TREATING HEART FAILURE WITH STRESSCOPIN-LIKE PEPTIDES” (priority 2009, published 2011).
Where a chain is given by its changes, count along the chain named. One block for each binder: values may come before it. Where no end group is shown, it is not given here. The star is where a group is joined. Succinimide(1-Et,3-yl) = CCN1C(=O)CC(*)C1=O

Biological target: T1, human corticotrophin releasing hormone receptor type 2 (CRHR2) (human, UniProt Q13324 1-411)
T1 sequence (looked up): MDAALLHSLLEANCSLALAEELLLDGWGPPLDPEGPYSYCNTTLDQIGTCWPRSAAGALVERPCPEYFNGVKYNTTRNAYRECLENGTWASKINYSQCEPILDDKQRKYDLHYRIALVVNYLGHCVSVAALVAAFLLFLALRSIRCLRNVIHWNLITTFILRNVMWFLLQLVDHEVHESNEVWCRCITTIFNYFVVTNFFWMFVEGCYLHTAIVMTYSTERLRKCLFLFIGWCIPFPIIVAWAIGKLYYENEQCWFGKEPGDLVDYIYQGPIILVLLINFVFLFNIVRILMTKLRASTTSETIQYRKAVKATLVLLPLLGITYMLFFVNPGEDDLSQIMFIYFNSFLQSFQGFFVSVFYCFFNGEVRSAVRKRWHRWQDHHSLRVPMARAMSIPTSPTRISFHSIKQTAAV
Experiment: cell-based or functional assay

Log DR: 0.72 log10
pA50: 8.97 -log10(M)
B1: Cys-variant stresscopin-like peptide SEQ ID NO: 3 (peptide)
peptide: TCFTLSLDVPTNIMNLLFNIAKAKNLRAQAAANAHLMAQI-NH2

Log DR: -0.08 log10
pA50: 9.55 -log10(M)
B2: Cys-variant of stresscopin peptide with N-Ethylsuccinimide (NES) reactive group SEQ ID NO: 54 (peptide)
peptide: TKFTLSLDVPTNIMNC(Succinimide(1-Et,3-yl))LFNIAKAKNLRAQAAANAHLMAQI-NH2
modifications: N-terminus assumed
SMILES: CC[C@H](C)[C@H](NC(=O)[C@H](CCC(N)=O)NC(=O)[C@H](C)NC(=O)[C@H](CCSC)NC(=O)[C@H](CC(C)C)NC(=O)[C@H](Cc1c[nH]cn1)NC(=O)[C@H](C)NC(=O)[C@H](CC(N)=O)NC(=O)[C@H](C)NC(=O)[C@H](C)NC(=O)[C@H](C)NC(=O)[C@H](CCC(N)=O)NC(=O)[C@H](C)NC(=O)[C@H](CCCNC(=N)N)NC(=O)[C@H](CC(C)C)NC(=O)[C@H](CC(N)=O)NC(=O)[C@H](CCCCN)NC(=O)[C@H](C)NC(=O)[C@H](CCCCN)NC(=O)[C@H](C)NC(=O)[C@@H](NC(=O)[C@H](CC(N)=O)NC(=O)[C@H](Cc1ccccc1)NC(=O)[C@H](CC(C)C)NC(=O)[C@H](CSC1CC(=O)N(CC)C1=O)NC(=O)[C@H](CC(N)=O)NC(=O)[C@H](CCSC)NC(=O)[C@@H](NC(=O)[C@H](CC(N)=O)NC(=O)[C@@H](NC(=O)[C@@H]1CCCN1C(=O)[C@@H](NC(=O)[C@H](CC(=O)O)NC(=O)[C@H](CC(C)C)NC(=O)[C@H](CO)NC(=O)[C@H](CC(C)C)NC(=O)[C@@H](NC(=O)[C@H](Cc1ccccc1)NC(=O)[C@H](CCCCN)NC(=O)[C@@H](N)[C@@H](C)O)[C@@H](C)O)C(C)C)[C@@H](C)O)[C@@H](C)CC)[C@@H](C)CC)C(N)=O

Log DR: 1.72 log10
pA50: 7.86 -log10(M)
B3: Cys-variant stresscopin-like peptide SEQ ID NO: 12 (peptide)
peptide: TKFTLSLDVPCNIMNLLFNIAKAKNLRAQAAANAHLMAQI-NH2

Log DR: 0.82 log10
pA50: 8.76 -log10(M)
B4: Cys-variant stresscopin-like peptide SEQ ID NO: 11 (peptide)
peptide: TKFTLSLDVCTNIMNLLFNIAKAKNLRAQAAANAHLMAQI-NH2

Log DR: 0.76 log10
pA50: 8.93 -log10(M)
B5: Cys-variant stresscopin-like peptide SEQ ID NO: 5 (peptide)
peptide: TKFCLSLDVPTNIMNLLFNIAKAKNLRAQAAANAHLMAQI-NH2

Log DR: 1.89 log10
pA50: 7.8 -log10(M)
B6: Cys-variant stresscopin-like peptide SEQ ID NO: 9 (peptide)
peptide: TKFTLSLCVPTNIMNLLFNIAKAKNLRAQAAANAHLMAQI-NH2

Log DR: 1.03 log10
pA50: 8.65 -log10(M)
B7: Cys-variant stresscopin-like peptide SEQ ID NO: 4 (peptide)
peptide: TKCTLSLDVPTNIMNLLFNIAKAKNLRAQAAANAHLMAQI-NH2

Log DR: ~2.22 log10
pA50: ~7.25 -log10(M)
B8: Cys-variant of stresscopin peptide with N-Ethylsuccinimide (NES) reactive group SEQ ID NO: 53 (peptide)
peptide: TKFTLSLDVPTNIMNLC(Succinimide(1-Et,3-yl))FNIAKAKNLRAQAAANAHLMAQI-NH2
modifications: N-terminus assumed
SMILES: CC[C@H](C)[C@H](NC(=O)[C@H](CCC(N)=O)NC(=O)[C@H](C)NC(=O)[C@H](CCSC)NC(=O)[C@H](CC(C)C)NC(=O)[C@H](Cc1c[nH]cn1)NC(=O)[C@H](C)NC(=O)[C@H](CC(N)=O)NC(=O)[C@H](C)NC(=O)[C@H](C)NC(=O)[C@H](C)NC(=O)[C@H](CCC(N)=O)NC(=O)[C@H](C)NC(=O)[C@H](CCCNC(=N)N)NC(=O)[C@H](CC(C)C)NC(=O)[C@H](CC(N)=O)NC(=O)[C@H](CCCCN)NC(=O)[C@H](C)NC(=O)[C@H](CCCCN)NC(=O)[C@H](C)NC(=O)[C@@H](NC(=O)[C@H](CC(N)=O)NC(=O)[C@H](Cc1ccccc1)NC(=O)[C@H](CSC1CC(=O)N(CC)C1=O)NC(=O)[C@H](CC(C)C)NC(=O)[C@H](CC(N)=O)NC(=O)[C@H](CCSC)NC(=O)[C@@H](NC(=O)[C@H](CC(N)=O)NC(=O)[C@@H](NC(=O)[C@@H]1CCCN1C(=O)[C@@H](NC(=O)[C@H](CC(=O)O)NC(=O)[C@H](CC(C)C)NC(=O)[C@H](CO)NC(=O)[C@H](CC(C)C)NC(=O)[C@@H](NC(=O)[C@H](Cc1ccccc1)NC(=O)[C@H](CCCCN)NC(=O)[C@@H](N)[C@@H](C)O)[C@@H](C)O)C(C)C)[C@@H](C)O)[C@@H](C)CC)[C@@H](C)CC)C(N)=O

Log DR: ~1.61 log10
pA50: ~7.93 -log10(M)
B9: Pegylated Cys-variant stresscopin-like peptide with NES linker and PEG about 20 kDa SEQ ID NO: 55 (peptide)
peptide: CKFTLSLDVPTNIMNLLFNIAKAKNLRAQAAANAHLMAQI
modifications: NES-PEG (about 20 kDa) on Cys 1; C-terminal amide (-NH2)

Log DR: > 3.48 log10
pA50: ~6.06 -log10(M)
B10: Pegylated Cys-variant stresscopin-like peptide with NES linker and PEG about 20 kDa SEQ ID NO: 62 (peptide)
peptide: B9 peptide with C1T, D8C
modifications: NES-PEG (about 20 kDa) on Cys 8; C-terminal amide (-NH2)

Log DR: ~1.9 log10
pA50: ~7.64 -log10(M)
B11: Pegylated Cys-variant stresscopin-like peptide with NES linker and PEG about 20 kDa SEQ ID NO: 57 (peptide)
peptide: B9 peptide with C1T, F3C
modifications: NES-PEG (about 20 kDa) on Cys 3; C-terminal amide (-NH2)

Log DR: ~2.4 log10
pA50: ~7.14 -log10(M)
B12: Pegylated Cys-variant stresscopin-like peptide with NES linker and PEG about 20 kDa SEQ ID NO: 58 (peptide)
peptide: B9 peptide with C1T, T4C
modifications: NES-PEG (about 20 kDa) on Cys 4; C-terminal amide (-NH2)

Log DR: > 3.32 log10
pA50: ~6.22 -log10(M)
B13: Pegylated Cys-variant stresscopin-like peptide with NES linker and PEG about 20 kDa SEQ ID NO: 61 (peptide)
peptide: B9 peptide with C1T, L7C
modifications: NES-PEG (about 20 kDa) on Cys 7; C-terminal amide (-NH2)

Log DR: ~2.32 log10
pA50: ~7.22 -log10(M)
B14: Pegylated Cys-variant stresscopin-like peptide with NES linker and PEG about 20 kDa SEQ ID NO: 59 (peptide)
peptide: B9 peptide with C1T, L5C
modifications: NES-PEG (about 20 kDa) on Cys 5; C-terminal amide (-NH2)

Log DR: ~2.59 log10
pA50: ~6.98 -log10(M)
B15: Pegylated Cys-variant stresscopin-like peptide with NES linker and PEG about 20 kDa SEQ ID NO: 64 (peptide)
peptide: B9 peptide with C1T, P10C
modifications: NES-PEG (about 20 kDa) on Cys 10; C-terminal amide (-NH2)

Log DR: ~2.75 log10
pA50: ~6.82 -log10(M)
B16: Pegylated Cys-variant stresscopin-like peptide with NES linker and PEG about 20 kDa SEQ ID NO: 65 (peptide)
peptide: B9 peptide with C1T, T11C
modifications: NES-PEG (about 20 kDa) on Cys 11; C-terminal amide (-NH2)

Log DR: ~2.12 log10
pA50: ~7.45 -log10(M)
B17: Pegylated Cys-variant stresscopin-like peptide with NES linker and PEG about 20 kDa SEQ ID NO: 63 (peptide)
peptide: B9 peptide with C1T, V9C
modifications: NES-PEG (about 20 kDa) on Cys 9; C-terminal amide (-NH2)

Log DR: ~2.34 log10
pA50: ~7.2 -log10(M)
B18: Pegylated Cys-variant stresscopin-like peptide with NES linker and PEG about 20 kDa SEQ ID NO: 56 (peptide)
peptide: B9 peptide with C1T, K2C
modifications: NES-PEG (about 20 kDa) on Cys 2; C-terminal amide (-NH2)

Log DR: > 3.22 log10
pA50: ~6.32 -log10(M)
B19: Pegylated Cys-variant stresscopin-like peptide with NES linker and PEG about 20 kDa SEQ ID NO: 60 (peptide)
peptide: B9 peptide with C1T, S6C
modifications: NES-PEG (about 20 kDa) on Cys 6; C-terminal amide (-NH2)

Log DR: 0.61 log10
pA50: 9.07 -log10(M)
B20: Cys-variant stresscopin-like peptide SEQ ID NO: 6 (peptide)
peptide: TKFTCSLDVPTNIMNLLFNIAKAKNLRAQAAANAHLMAQI-NH2

Log DR: 2.86 log10
pA50: ~6.82 -log10(M)
B21: Cys-variant stresscopin-like peptide SEQ ID NO: 8 (peptide)
peptide: TKFTLSCDVPTNIMNLLFNIAKAKNLRAQAAANAHLMAQI-NH2

Log DR: 2.08 log10
pA50: 7.6 -log10(M)
B22: Cys-variant stresscopin-like peptide SEQ ID NO: 7 (peptide)
peptide: TKFTLCLDVPTNIMNLLFNIAKAKNLRAQAAANAHLMAQI-NH2

Log DR: 1.3 log10
pA50: 8.28 -log10(M)
B23: Cys-variant stresscopin-like peptide SEQ ID NO: 10 (peptide)
peptide: TKFTLSLDCPTNIMNLLFNIAKAKNLRAQAAANAHLMAQI-NH2

Log DR: 0.72 log10
pA50: 8.97 -log10(M)
B24: Cys-variant stresscopin-like peptide SEQ ID NO: 2 (peptide)
peptide: CKFTLSLDVPTNIMNLLFNIAKAKNLRAQAAANAHLMAQI-NH2
